In article doi:10.1101/2023.01.27.525930:

Molecular target: Polyketide synthase 13 (Pks13) of Mycobacterium smegmatis (Mycobacterium smegmatis) (UniProt A0R617)
Assay: native gel or EMSA; blue native PAGE of the protein of both sizing-column peaks; purified in β-DDM

stoichiometry N: 2
Substance: Polyketide synthase 13 (Pks13) of Mycobacterium smegmatis (from UniProt A0R617 1-1816) (enzyme)
